# Paper PMC2362355, “The two phyto-oestrogens genistein and quercetin exert different effects on oestrogen receptor function”
# B1: consensus ERE 27 bp (dsDNA)
# DNA 1: GATCCAGGTCACAGTGACCTGGGCCCG
# DNA 2: CGGGCCCAGGTCACTGTGACCTGGATC
# Molecular target: oestrogen receptor (ER), recombinant human (human, UniProt P03372 1-595)
# Assay: EMSA; 10 nM oestradiol; supershifted by anti-ER HC-20; 20 mM HEPES pH 7.9, 60 mM KCl, 5 mM MgCl2, 2 mM DTT, 10% glycerol, 100 ug (unit prefix not given) BSA, 380 fmol ER, 6 ng ERE, 20 ul; 20 C 20 min then 37 C 15 min; 4% native PAGE in 90 mM Tris-borate, 2.5 mM EDTA pH 8.3
# Conditions: protein: commercial; label: 32P end label (T4 PNK); (only one strand printed, described as complementary strands, 27 bp)
# oestrogen receptor (ER), recombinant human, sequence (P03372 whole entry): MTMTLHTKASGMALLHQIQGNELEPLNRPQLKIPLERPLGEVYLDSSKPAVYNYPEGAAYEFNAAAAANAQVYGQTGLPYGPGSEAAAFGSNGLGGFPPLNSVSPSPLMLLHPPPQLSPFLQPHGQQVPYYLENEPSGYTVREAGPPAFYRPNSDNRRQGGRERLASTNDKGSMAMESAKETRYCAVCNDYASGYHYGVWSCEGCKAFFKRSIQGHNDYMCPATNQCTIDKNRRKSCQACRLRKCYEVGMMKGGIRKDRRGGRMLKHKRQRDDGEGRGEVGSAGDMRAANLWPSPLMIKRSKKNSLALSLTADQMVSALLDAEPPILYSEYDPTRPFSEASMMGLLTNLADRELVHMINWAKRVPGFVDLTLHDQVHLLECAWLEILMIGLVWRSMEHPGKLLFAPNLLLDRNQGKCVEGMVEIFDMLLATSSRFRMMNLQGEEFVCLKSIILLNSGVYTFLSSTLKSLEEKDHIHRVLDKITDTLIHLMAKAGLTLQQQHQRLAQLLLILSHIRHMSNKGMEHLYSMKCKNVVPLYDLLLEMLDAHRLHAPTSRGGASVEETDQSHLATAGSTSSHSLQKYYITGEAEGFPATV
binder,measurement,value
B1,binding result,binds
